{"source": "paper PMC2824050", "binders": {"B1": {"name": "UL16 tegument protein of herpes simplex virus (natural protein)", "chain": "MAQLGPRRPLAPPGPPGTLPRPDSRAGARGTRDRVDDLGTDVDSIARIVNSVFVWRVVRADERLKIFRCLTVLTEPLCQVALPNPDPGRALFCEIFLYLTRPKALRLPPNTFFALFFFNRERRYCAIVHLRSVTHPLTPLLCTLTFARIRAATPPEETPDPTTEQLAEEPVVGELDGAYLVPAKTPPEPGACCALGPGAWWHLPSGQIYCWAMDSDLGSLCPPGSRARHLGWLLARITNHPGGCESCAPPPHIDSANALWLSSVVTESCPCVAPCLWAKMAQCTLAVQGDASLCPLLFGHPVDTVTLLQAPRRPCITDRLQEVVGGRCGADNIPPTSAGWRLCVFSSYISRLFATSCPTVARAVARASSSDPE"}}, "biological_target": "HSV-1 cytoplasmic capsids (HSV-1, KOS strain) (UniProt P10202)", "sequence (P10202 whole entry, looked up)": "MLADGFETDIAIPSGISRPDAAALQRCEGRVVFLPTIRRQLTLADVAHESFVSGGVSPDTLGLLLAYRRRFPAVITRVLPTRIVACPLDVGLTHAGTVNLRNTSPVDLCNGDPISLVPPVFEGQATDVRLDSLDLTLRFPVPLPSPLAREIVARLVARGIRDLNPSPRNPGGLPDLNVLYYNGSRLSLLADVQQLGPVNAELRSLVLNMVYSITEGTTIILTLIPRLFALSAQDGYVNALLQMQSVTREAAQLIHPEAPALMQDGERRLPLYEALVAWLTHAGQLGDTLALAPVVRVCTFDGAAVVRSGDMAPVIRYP", "experiment": "co-sedimentation", "data": [{"binder": "B1", "values": [{"measurement": "amount of UL16 on ΔUL37 capsids relative to WT", "result": 42, "unit": "%"}]}]}
